Experiments:
[1] = target: T1, monovalent hVISTA-ECD (human VISTA extracellular domain with His tail) (human, UniProt Q9H7M9 33-193); test: SPR
T1 construct: analyte flowed over captured antibody; also called huVISTA-His
Protocol: (§1) Binding of several preparations of each of the '029 progeny clones and of the parent '029 antibodies, formatted as IgG1.3 antibodies, to human VISTA at pH 6.0 and 7.4 was measured by Surface plasmon resonance (SPR). SPR analysis was performed to measure koff and KD binding affinity measurements for VISTA Abs at acidic and neutral pHs using a Biacore® T100 instrument (GE Healthcare). Protein A (ThermoFisher Scientific catalog #21181) was diluted to 20 ug/ml in 10 mM sodium acetate pH 4.5 and immobilized onto flow cells of a CM5 biosensor following the manufacturer's amine coupling protocol (GE Healthcare), targeting 2,000 RU immobilization density of Protein A per flow cell. SPR experiments were conducted at 37° C. using PBST (137 mM sodium chloride, 2.7 mM potassium chloride, 10 mM phosphate buffer, 0.05% Tween® 20) running buffer at pH 7.4 and 6.0. Antibodies were diluted to 25 nM in PBST pH 7.4, and were captured across active biosensor flow cells at 5 ul/min for 60 seconds. […] Two 15 second injections of 10 mM glycine pH 1.5 were used to regenerate the Protein A capture surface between assay cycles. Rate constants ka (kₒₙ) and kd (koff) were derived from reference flow cell and 0 nM blank-subtracted sensorgrams, and were fit to a 1:1 binding model in Biacore® T200 Evaluation Software v.2.0. The affinity constant, KD was calculated as the ratio of rate constants koff/kₒₙ for each VISTA antibody. […]

[2] = target: T1, monovalent hVISTA-ECD (human VISTA …); test: SPR; remark: listed apart in the source
Protocol: (§2) Binding of several preparations of each of the '029 progeny clones and of the parent '029 antibodies, formatted as IgG1.3 antibodies, to human VISTA at pH 6.0 and 7.4 was measured by Surface plasmon resonance (SPR). SPR analysis was performed to measure koff and KD binding affinity measurements for VISTA Abs at acidic and neutral pHs using a Biacore® T100 instrument (GE Healthcare). Protein A (ThermoFisher Scientific catalog #21181) was diluted to 20 ug/ml in 10 mM sodium acetate pH 4.5 and immobilized onto flow cells of a CM5 biosensor following the manufacturer's amine coupling protocol (GE Healthcare), targeting 2,000 RU immobilization density of Protein A per flow cell. SPR experiments were conducted at 37° C. using PBST (137 mM sodium chloride, 2.7 mM potassium chloride, 10 mM phosphate buffer, 0.05% Tween® 20) running buffer at pH 7.4 and 6.0. Antibodies were diluted to 25 nM in PBST pH 7.4, and were captured across active biosensor flow cells at 5 ul/min for 60 seconds. […] Two 15 second injections of 10 mM glycine pH 1.5 were used to regenerate the Protein A capture surface between assay cycles. Rate constants ka (kₒₙ) and kd (koff) were derived from reference flow cell and 0 nM blank-subtracted sensorgrams, and were fit to a 1:1 binding model in Biacore® T200 Evaluation Software v.2.0. The affinity constant, KD was calculated as the ratio of rate constants koff/kₒₙ for each VISTA antibody.

[3] = target: T1, monovalent hVISTA-ECD (human VISTA …); test: SPR, pH 6.0
Protocol: as §1

[4] = target: T1, monovalent hVISTA-ECD (human VISTA …); test: SPR, pH 7.4
Protocol: as §1

[5] = target: T1, monovalent hVISTA-ECD (human VISTA …); test: SPR, pH 6.0; remark: listed apart in the source
Protocol: as §2

[6] = target: T1, monovalent hVISTA-ECD (human VISTA …); test: SPR, pH 7.4; remark: listed apart in the source
Protocol: as §2

[7] = target: T1, monovalent hVISTA-ECD (human VISTA …); test: SPR, pH 6.0, average
Protocol: as §1

[8] = target: T1, monovalent hVISTA-ECD (human VISTA …); test: SPR, pH 6.0; remark: listed apart in the source
Protocol: as §2
(§3) This initial campaign led to pH-independent VISTA.4 variants with near equivalent koff at pH 6 and pH 7. In order to obtain an antibody that binds to hVISTA with high affinity at pH 6.0 and low affinity at pH 7.0, a new library based on consensus sequence of pH-independent VISTA.4 variants was designed and constructed, with amino acid residues in the loops substituted for charge amino acid residues (see Example 9), and screened via yeast surface display (see Example 9). The library was analyzed as previously described (see Example 9) and selected variants were reformatted as IgG1.3 for further analysis (Tables 26 and 27). SPR analysis was conducted on these variants using the conditions previously described in Example 9.

[9] = target: T1, monovalent hVISTA-ECD (human VISTA …); test: SPR, pH 7.4; remark: listed apart in the source
Protocol: as §2, §3

[10] = target: T1, monovalent hVISTA-ECD (human VISTA …); test: SPR, pH 7.4, average
Protocol: as §2
Some of the VISTA.4 mutants described above and new mutants were tested for binding to hVISTA, according to the methods described in Example 9. […] Antibody 41F11_VH_T28P/Y50W/S55E/D95H/L96E/P97E/Y100E; VK_A64G (P1-070976) is the only VISTA.4 derivative that is pH selective.

Row | KD ratio (pH 7.4/pH 6.0) [1] | pH 6.0/7.4 KD [2] | pH 6.0/7.4 kd [2] | Kd [3] [nM] | koff [3] [s⁻¹] | kon [3] [M⁻¹ s⁻¹] | Kd [5] [nM] | kd improvement vs parent [5] [fold] | koff [5] [s⁻¹] | kon [5] [M⁻¹ s⁻¹] | Kd [6] [nM] | kd improvement vs parent [6] [fold] | koff [6] [s⁻¹] | kon [6] [M⁻¹ s⁻¹] | Kd [8] [nM] | koff [8] [s⁻¹] | kon [8] [M⁻¹ s⁻¹] | Kd [9] [nM] | koff [9] [s⁻¹] | kon [9] [M⁻¹ s⁻¹] | Binder | further results
1 | 7.88 | 3.3 | 12 | 3.86 | 0.00237 | 616000 | 4.7 | 51.4 | 0.0021 | 450000 | 1.4 | 5.1 | 0.00017 | 120000 |  |  |  |  |  |  | P1-061528 (41F11 NGS mut VK_A64G/R91A) (antibody, V domains shown, also called P1-061528-2) VH: QVQLVESGGGLVKPGGSLRLSCAASGFTFSDYYMSWIRQAPGKGLEWVSYISNSGSPIYYADSVKGRFTISRDNAKNSLYLQMNSLRAEDTAVYYCARDLPGWYFDLWGRGTLVTVSS VL: EIVLTQSPATLSLSPGERATLSCRASQSVSSYLAWYQQKPGQAPRLLIYDASNRATGIPARFSGSGSGTDFTLTISSLEPEDFAVYYCQQANNWPRTFGQGTKVEIK | Kd [4]: 30.4 nM; koff [4]: 0.00019 s⁻¹; kon [4]: 6260 M⁻¹ s⁻¹
2 |  |  |  |  |  |  |  |  |  |  |  |  |  |  |  |  |  |  |  |  | P1-071799 (P1-070976_H95D) (antibody, human IgG1, kappa, V domains shown, IgG1.3) VH: QVQLVESGGGLVKPGGSLRLSCAASGFPFSDYYMSWIRQAPGKGLEWVSWISNSGEPIYYADSVKGRFTISRDNAKNSLYLQMNSLRAEDTAVYYCARDEEGWEFDLWGRGTLVTVSS VL: EIVLTQSPATLSLSPGERATLSCRASQSVSSYLAWYQQKPGQAPRLLIYDASNRATGIPARFSGSGSGTDFTLTISSLEPEDFAVYYCQQRNNWPRTFGQGTKVEIKR | Kd [7]: 15 nM; koff [7]: 0.027 s⁻¹; kon [7]: 1.7e+06 M⁻¹ s⁻¹
3 | 33.8 | 0.6 | 4.8 | 2.51 | 0.00312 | 1.24e+06 | 2.6 | 35 | 0.0031 | 1.2e+06 | 4.1 | 1.4 | 0.00064 | 150000 | 4.8 | 0.0036 | 750000 | 3.4 | 0.00039 | 110000 | P1-064510 (41F11_Vk_A25E/V29D/A64G/R91T) (antibody, V domains shown, also called P1-064510-1) VH: QVQLVESGGGLVKPGGSLRLSCAASGFTFSDYYMSWIRQAPGKGLEWVSYISNSGSPIYYADSVKGRFTISRDNAKNSLYLQMNSLRAEDTAVYYCARDLPGWYFDLWGRGTLVTVSS VL: EIVLTQSPATLSLSPGERATLSCRESQSDSSYLAWYQQKPGQAPRLLIYDASNRATGIPARFSGSGSGTDFTLTISSLEPEDFAVYYCQQTNNWPRTFGQGTKVEIK | Kd [4]: 84.8 nM; koff [4]: 0.000527 s⁻¹; kon [4]: 6220 M⁻¹ s⁻¹
4 |  | 0.2 | 2.1 |  |  |  | 6.4 | 3.3 | 0.033 | 5.1e+06 | 37 | 0.1 | 0.016 | 430000 | 10 | 0.027 | 2.7e+06 | 31 | 0.019 | 630000 | P1-064391 (41F11_HC_Mutant: D31E/Y50W/S55E/Y100E 41F11_LC_Mutant: V29D/A64G/R91T) (antibody, V domains shown, Kabat positions; also called P1-064391-1) VH: QVQLVESGGGLVKPGGSLRLSCAASGFTFSEYYMSWIRQAPGKGLEWVSWISNSGEPIYYADSVKGRFTISRDNAKNSLYLQMNSLRAEDTAVYYCARDLPGWEFDLWGRGTLVTVSS VL: EIVLTQSPATLSLSPGERATLSCRASQSDSSYLAWYQQKPGQAPRLLIYDASNRATGIPARFSGSGSGTDFTLTISSLEPEDFAVYYCQQTNNWPRTFGQGTKVEIK | 
5 |  |  |  |  |  |  |  |  |  |  |  |  |  |  |  |  |  |  |  |  | P1-071801 (P1-070976_E97P) (antibody, human IgG1, kappa, V domains shown, IgG1.3) VH: QVQLVESGGGLVKPGGSLRLSCAASGFPFSDYYMSWIRQAPGKGLEWVSWISNSGEPIYYADSVKGRFTISRDNAKNSLYLQMNSLRAEDTAVYYCARHEPGWEFDLWGRGTLVTVSS VL: EIVLTQSPATLSLSPGERATLSCRASQSVSSYLAWYQQKPGQAPRLLIYDASNRATGIPARFSGSGSGTDFTLTISSLEPEDFAVYYCQQRNNWPRTFGQGTKVEIKR | Kd [7]: 3.5 nM; koff [7]: 0.0016 s⁻¹; kon [7]: 460000 M⁻¹ s⁻¹; Kd [10]: 21 nM; koff [10]: 0.00061 s⁻¹; kon [10]: 29000 M⁻¹ s⁻¹
6 | 5.73 | 0.2 | 1.1 | 0.172 | 0.000603 | 3.52e+06 | 0.12 | 294 | 0.00036 | 2.9e+06 | 0.76 | 2.7 | 0.00033 | 440000 | 0.21 | 0.00051 | 2.4e+06 | 0.72 | 0.00032 | 450000 | P1-065326 (41F11_VH_D31E/Y50W/S55E/L96E/Y100E VK_A64G) (antibody, V domains shown, Kabat positions; also called P1-065326-1) VH: QVQLVESGGGLVKPGGSLRLSCAASGFTFSEYYMSWIRQAPGKGLEWVSWISNSGEPIYYADSVKGRFTISRDNAKNSLYLQMNSLRAEDTAVYYCARDEPGWEFDLWGRGTLVTVSS VL: EIVLTQSPATLSLSPGERATLSCRASQSVSSYLAWYQQKPGQAPRLLIYDASNRATGIPARFSGSGSGTDFTLTISSLEPEDFAVYYCQQRNNWPRTFGQGTKVEIK | Kd [4]: 0.986 nM; koff [4]: 0.000285 s⁻¹; kon [4]: 289000 M⁻¹ s⁻¹
7 |  | 0.1 | 1.2 |  |  |  | 1.8 | 12.4 | 0.0086 | 4.8e+06 | 15 | 0.1 | 0.007 | 470000 | 1.6 | 0.012 | 7.7e+06 | 11 | 0.0078 | 770000 | P1-064392 (41F11_HC_Mutant: D31E/Y50W/S55E/Y100E 41F11_LC_Mutant: V29D/A64G/Q89E/R91T) (antibody, V domains shown, Kabat positions; also called P1-064392-1) VH: QVQLVESGGGLVKPGGSLRLSCAASGFTFSEYYMSWIRQAPGKGLEWVSWISNSGEPIYYADSVKGRFTISRDNAKNSLYLQMNSLRAEDTAVYYCARDLPGWEFDLWGRGTLVTVSS VL: EIVLTQSPATLSLSPGERATLSCRASQSDSSYLAWYQQKPGQAPRLLIYDASNRATGIPARFSGSGSGTDFTLTISSLEPEDFAVYYCEQTNNWPRTFGQGTKVEIK | 

Reference: US20220073617A1 (Five Prime, published 2022)
